Experimental findings from PMC4006906 (PLoS Pathogens, 2014) are described below.

The assay concerns the target T1, A/California/04/2009 (H1CA0409) recombinant HA (Influenza A virus, A/California/04/2009 …, UniProt C3W5S1, strain).
T1 construct: source: supplied by BEI Resources
Briefly: ELISA. Conditions: both partners purified.

B1: F10 scFv (wild type) (scFv, V domains shown)
VH: QVQLVQSGAEVKKPGSSVKVSCTSSEVTFSSFAISWVRQAPGQGLEWLGGISPMFGTPNYAQKFQGRVTITADQSTRTAYMDLRSLRSEDTAVYYCARSPSYICSGGTCVFDHWGQGTLVTVSS
VL: QPGLTQPPSVSKGLRQTATLTCTGNSNNVGNQGAAWLQQHQGHPPKLLSYRNNDRPSGISERFSASRSGNTASLTITGLQPEDEADYYCSTWDSSLSAVVFGGGTKLTVL
notes: also called F10 wt; construct #1; source: E. coli BL21 (DE3), purified (streptactin beads)
For B1, the binding result is listed as “binds”.
